Laboratory results taken from patent US20180105596A1 (ELSALYS BIOTECH, published 2018).

T1: cynomolgus Tyro3 ECD, His-Strep tagged
T1 construct: also called cyno TYRO3 ECD 8hisstrep
T1 extracellular domain: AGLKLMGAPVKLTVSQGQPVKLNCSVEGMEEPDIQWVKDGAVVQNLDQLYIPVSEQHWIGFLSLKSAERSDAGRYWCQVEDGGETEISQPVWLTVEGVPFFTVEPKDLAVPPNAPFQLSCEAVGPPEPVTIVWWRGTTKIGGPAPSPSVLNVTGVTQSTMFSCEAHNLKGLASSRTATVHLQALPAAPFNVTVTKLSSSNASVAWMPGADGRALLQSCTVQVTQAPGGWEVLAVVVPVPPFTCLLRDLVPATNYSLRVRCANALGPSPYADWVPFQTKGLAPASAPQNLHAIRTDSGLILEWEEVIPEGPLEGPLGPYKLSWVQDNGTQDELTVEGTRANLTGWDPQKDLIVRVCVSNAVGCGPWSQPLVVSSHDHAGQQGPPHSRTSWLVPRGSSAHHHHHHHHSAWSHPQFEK

T2: immunoglobulin-like domain Ig-2 of human Tyro3 (human, UniProt Q06418 139-220)
T2 construct: No fragment of Ig-2 alone was made
T2 sequence: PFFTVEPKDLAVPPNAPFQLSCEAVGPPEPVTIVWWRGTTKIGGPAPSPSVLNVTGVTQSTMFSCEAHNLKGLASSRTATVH

T3: Ig-1 and Ig-2 domains fragment of human Tyro3 ECD, His-Strep tagged (human)
T3 construct: also called Ig1-Ig2 fragment
T3 chain: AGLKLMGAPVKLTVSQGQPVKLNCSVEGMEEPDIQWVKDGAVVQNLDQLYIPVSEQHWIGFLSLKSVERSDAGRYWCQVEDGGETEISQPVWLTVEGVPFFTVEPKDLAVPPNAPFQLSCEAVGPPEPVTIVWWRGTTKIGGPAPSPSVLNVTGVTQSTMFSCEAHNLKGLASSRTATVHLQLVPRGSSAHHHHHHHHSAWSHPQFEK

T4: Ig-1 domain fragment of human Tyro3 ECD, His-Strep tagged (human)
T4 chain: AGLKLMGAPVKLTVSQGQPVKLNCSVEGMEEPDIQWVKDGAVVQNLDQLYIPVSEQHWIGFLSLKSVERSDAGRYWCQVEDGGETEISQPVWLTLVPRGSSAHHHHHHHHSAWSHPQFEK

T5: Tyro3 ECD FNIII 1-FNIII-2
T5 construct: also called FNIII 1 + FNIII 2 fragment of hTyro3 ECD, His-Strep tagged
T5 fragment: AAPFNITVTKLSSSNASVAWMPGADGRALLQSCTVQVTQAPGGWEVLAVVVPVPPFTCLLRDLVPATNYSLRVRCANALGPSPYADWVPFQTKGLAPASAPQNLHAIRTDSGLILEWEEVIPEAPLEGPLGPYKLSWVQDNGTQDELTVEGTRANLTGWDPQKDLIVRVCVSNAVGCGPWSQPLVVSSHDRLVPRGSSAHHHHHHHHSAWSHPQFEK

T6: Tyro3 ECD Ig2-FNIII 1
T6 construct: also called Ig2 + FNIII 1 fragment of hTyro3 ECD, His-Strep tagged
T6 fragment: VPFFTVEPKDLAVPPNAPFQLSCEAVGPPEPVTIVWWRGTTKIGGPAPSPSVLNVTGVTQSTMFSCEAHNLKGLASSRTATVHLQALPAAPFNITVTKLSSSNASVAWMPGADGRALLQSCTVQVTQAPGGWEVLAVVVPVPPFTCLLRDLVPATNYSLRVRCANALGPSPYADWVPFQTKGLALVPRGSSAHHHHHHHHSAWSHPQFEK


Key:
[1] = biological target: T1, cynomolgus Tyro3 ECD, His-Strep tagged; assay: sandwich ELISA, Strep-tagged cynomolgus Tyro3 ECD captured on StrepMAB plate, scFv 3-fold from 10 µg/mL, anti-FLAG-HRP
Method: [The procedure below names another species; the source lists this species under the same test.] A double sandwich ELISA was developed. This assay consisted in measuring the binding of the anti-Tyro3 antibodies to be tested on immobilized strep-tagged entire human Tyro3 ECD captured directly on ELISA plate pre-coated with an anti-strep mAb (StrepMAB-Immo coated microplates from IBA biotech). Briefly, the 96 wells of StrepMAB-Immo coated microplate were washed three times with 300 μL of the PBS Tween 0.2% (referred as ELISA washing solution). The capture of an excess of purified strep tagged hTyro3 ECD protein was achieved by a one hour incubation at room temperature. In these experiments, 3 μg of purified protein diluted in PBS, BSA 1% (referred as ELISA diluent solution) were immobilized per well. The wells were washed three times with 300 μL of the washing solution. The non-specific binding sites on the well surface were blocked during 60 min at room temperature with 200 μL/well of blocking solution (PBS, BSA 3%). The wells were washed five times with 300 μL of the washing solution. Then, 100 μl (in duplicates) of the different concentrations of anti-Tyro3 antibodies to be tested diluted in ELISA diluent solution, were added per well and allowed to incubate during 1 hour at room temperature. An Irrelevant control IgG2656 was also added in this experiment. For anti-Tyro3 antibodies in the ScFv format, experiments were performed with 6 concentrations in duplicates (FIG. 3A). For anti-Tyro3 antibodies in the IgG format, experiments were performed with 9 concentrations in duplicates (FIG. 3B). […] For IgGs experiments, starting concentration for first dilution was 3 μg/ml and then dilutions of 3 fold in the ELISA diluent solution were performed. The wells were washed five times with 300 μL of the washing solution. […] The mix was allowed to incubated 60 min at room temperature.

[2] = biological target: T2, immunoglobulin-like domain Ig-2 of …; assay: double sandwich ELISA on captured fragments of hTyro3 ECD
[3] = biological target: T3, Ig-1 and Ig-2 domains fragment of human …; assay: sandwich ELISA, Strep-tagged fragment captured on StrepMAB plate, scFv 10 µg/mL (Table 17), anti-FLAG-HRP
[4] = biological target: T4, Ig-1 domain fragment of human Tyro3 …; assay: as above
[5] = biological target: T5, Tyro3 ECD FNIII 1-FNIII-2; assay: as above
[6] = biological target: T6, Tyro3 ECD Ig2-FNIII 1; assay: as above

Binder | binding result [1] | binding result [2] | binding result [3] | binding result [4] | binding result [5] | binding result [6]
anti-Tyro3 scFv 2414 (scFv, V domains shown, Tested as a single-chain Fv made in E. coli) VH: EVQLVQSGADVKKPGASLTISCQASGYTFTDYWISWVRQKPGKGLEWMGQINRHASNTMYGPSFQGHVTISADRSTATAYLQWRSLEASDTAMYYCVRSGGATSGGTIPEYYQHWGPGTLVTVSS VL: SYELTQPPSVSVSPGQTARITCSGDALPKKYAYWYQQKSGQAPVLVIYEDWKRASGIPERFSGSSSGTMATLTISGAQVEDEADYYCYSQERKGNYFVFGGGTKLTVL | binds | no binding (tested: 10 µg/mL) | binds | binds | no binding (tested: 10 µg/mL) | –
anti-Tyro3 scFv 2717 (scFv, V domains shown, Tested as a single-chain Fv made in E. coli) VH: EVQLVQSGADVKKPGASLTISCQASGYTFTDYWISWVRQKPGKGLEWMGEIFLPPSTTVYGPSFQGHVTISADRSTATAYLQWRSLEASDTAMYYCVRQTRLTSGGTIPEYYQHWGPGTLVTVSS VL: SYELTQPPSVSVSPGQTARITCSGDALPKKYAYWYQQKSGQAPVLVIYEDNKRGSGIPERFSGSSSGTMATLTISGAQVEDEADYYCYSKSPEGNYMVFGGGTKLTVL | binds | no binding (tested: 10 µg/mL) | no binding (tested: 10 µg/mL) | binds | no binding (tested: 10 µg/mL) | no binding (tested: 10 µg/mL)
anti-Tyro3 scFv 2412 (scFv, V domains shown, Tested as a single-chain Fv made in E. coli) VH: EVQLVQSGADVKKPGASLTISCQASGYTFTDYWISWVRQKPGKGLEWMGRIRPLLSHTMYGPSFQGHVTISADRSTATAYLQWRSLEASDTAMYYCVRSWLATSGGTIPEYYQHWGPGTLVTVSS VL: SYELTQPPSVSVSPGQTARITCSGDALPKKYAYWYQQKSGQAPVLVIYEDAKRVSGIPERFSGSSSGTMATLTISGAQVEDEADYYCYSASANGNYRVFGGGTKLTVL | binds | – | binds | binds | no binding (tested: 10 µg/mL) | binds
anti-Tyro3 scFv 2711 (scFv, V domains shown, Tested as a single-chain Fv made in E. coli) VH: EVQLVQSGADVKKPGASLTISCQASGYTFTDYWISWVRQKPGKGLEWMGQIRGQHSSTLYGPSFQGHVTISADRSTATAYLQWRSLEASDTAMYYCVRHGASTSGGTIPEYYQHWGPGTLVTVSS VL: SYELTQPPSVSVSPGQTARITCSGDALPKKYAYWYQQKSGQAPVLVIYEDAKRSSGIPERFSGSSSGTMATLTISGAQVEDEADYYCYSLSDSGNYFVFGGGTKLTVL | binds | – | binds | binds | no binding (tested: 10 µg/mL) | binds
anti-Tyro3 scFv 2415 (scFv, V domains shown, Tested as a single-chain Fv made in E. coli) VH: EVQLVQSGADVKKPGASLTISCQASGYTFTDYWISWVRQKPGKGLEWMGQIRGPASATHYGPSFQGHVTISADRSTATAYLQWRSLEASDTAMYYCVRHQQQTSGGTIPEYYQHWGPGTLVTVSS VL: SYELTQPPSVSVSPGQTARITCSGDALPKKYAYWYQQKSGQAPVLVIYEDKKRISGIPERFSGSSSGTMATLTISGAQVEDEADYYCYSTSTGGNYMVFGGGTKLTVL | binds | – | binds | binds | no binding (tested: 10 µg/mL) | binds
anti-Tyro3 scFv 2713 (scFv, V domains shown, Tested as a single-chain Fv made in E. coli) VH: EVQLVQSGADVKKPGASLTISCQASGYTFTDYWISWVRQKPGKGLEWMGRISRHGSQTYYGPSFQGHVTISADRSTATAYLQWRSLEASDTAMYYCVRAGGQTSGGTIPEYYQHWGPGTLVTVSS VL: SYELTQPPSVSVSPGQTARITCSGDALPKKYAYWYQQKSGQAPVLVIYEDHKRASGIPERFSGSSSGTMATLTISGAQVEDEADYYCYSISPAGNYGVFGGGTKLTVL | binds | – | binds | binds | no binding (tested: 10 µg/mL) | binds
anti-Tyro3 scFv 2709 (scFv, V domains shown, Tested as a single-chain Fv made in E. coli) VH: EVQLVQSGADVKKPGASLTISCQASGYTFTDYWISWVRQKPGKGLEWMGAISRNGSTTYYGPSFQGHVTISADRSTATAYLQWRSLEASDTAMYYCVRSGGLTSGGTIPEYYQHWGPGTLVPVSS VL: SYELTQPPSVSVSPGQTARITCSGDALPKKYAYWYQQKSGQAPVLVIYEDKKRVSGIPERFSGSSSGTMATLTISGAQVEDEADYYCYSLAVDGNYGVFGGGTKLTVL | binds | no binding (tested: 10 µg/mL) | binds | binds | no binding (tested: 10 µg/mL) | no binding (tested: 10 µg/mL)
anti-Tyro3 scFv 2410 (scFv, V domains shown, Tested as a single-chain Fv made in E. coli) VH: EVQLVQSGADVKKPGASLTISCQASGYTFTDYWISWVRQKPGKGLEWMGQIVPRASRTNYGPSFQGHVTISADRSTATAYLQWRSLEASDTAMYYCVRPYFQTSGGTIPEYYQHWGPGTLVTVSS VL: SYELTQPPSVSVSPGQTARITCSGDALPKKYAYWYQQKSGQAPVLVIYEDEKRASGIPERFSGSSSGTMATLTISGAQVEDEADYYCYSQERNGNYAVFGGGTKLTVL | binds | no binding (tested: 10 µg/mL) | binds | binds | no binding (tested: 10 µg/mL) | –
